Results published in article PMC9482650, “Quantitative fragmentomics allow affinity mapping of interactomes” (Nature Communications, 2022).

Legend:
Experiment in all cases: holdup assay
Set-up in all cases: key: below the threshold = too weak to quantify, mostly under pKd 3.1 to 4
[1] = target: GRID2IP_2, A4D2P6
[2] = target: GORASP2, Q9H8Y8
[3] = target: Inadl_1, Q8NI35
[4] = target: GRIP2_4, Q9C0E4
[5] = target: T1, LNX2_2, Q8N448
T1 sequence (Q8N448 334-432, limits assumed, looked up): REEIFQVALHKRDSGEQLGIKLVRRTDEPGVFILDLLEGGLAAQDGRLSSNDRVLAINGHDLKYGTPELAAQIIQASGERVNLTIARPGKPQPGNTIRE

[6] = target: T2, HTRA3, P83110
T2 sequence (P83110 354-453, limits assumed, looked up): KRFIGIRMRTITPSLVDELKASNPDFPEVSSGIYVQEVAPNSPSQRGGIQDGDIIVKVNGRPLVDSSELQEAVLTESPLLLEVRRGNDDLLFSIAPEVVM

[7] = target: GOPC, Q9HD26
[8] = target: TJP1_3, Q07157
[9] = target: MAGI3_2, Q5TCQ9
[10] = target: T3, APBA2_2, Q99767
T3 sequence (Q99767 654-744, limits assumed, looked up): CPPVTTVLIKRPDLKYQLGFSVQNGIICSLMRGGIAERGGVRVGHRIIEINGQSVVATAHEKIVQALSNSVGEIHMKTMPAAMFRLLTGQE

[11] = target: Inadl_4, Q8NI35
[12] = target: MAGI1_1, Q96QZ7
[13] = target: TJP1_2, Q07157
[14] = target: HTRA2, O43464
[15] = target: T4, NHERF3_3, Q5T2W1
T4 sequence (Q5T2W1 238-333, limits assumed, looked up): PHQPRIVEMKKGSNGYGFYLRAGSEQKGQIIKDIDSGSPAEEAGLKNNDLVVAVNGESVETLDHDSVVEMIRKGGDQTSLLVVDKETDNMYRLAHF

[16] = target: MAST1, Q9Y2H9
[17] = target: PICK1, Q9NRD5
[18] = target: T5, DFNB31_2, Q9P202
T5 sequence (Q9P202 274-371, limits assumed, looked up): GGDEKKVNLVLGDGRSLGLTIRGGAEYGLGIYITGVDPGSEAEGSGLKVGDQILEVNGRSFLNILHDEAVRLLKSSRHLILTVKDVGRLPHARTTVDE

[19] = target: T6, ARHGEF11, O15085
T6 sequence (O15085 42-136, limits assumed, looked up): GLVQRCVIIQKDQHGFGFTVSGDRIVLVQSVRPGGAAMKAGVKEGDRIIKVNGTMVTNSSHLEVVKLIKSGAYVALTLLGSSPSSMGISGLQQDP

[20] = target: Inadl_9, Q8NI35
[21] = target: T7, LNX2_3, Q8N448
T7 sequence (Q8N448 463-564, limits assumed, looked up): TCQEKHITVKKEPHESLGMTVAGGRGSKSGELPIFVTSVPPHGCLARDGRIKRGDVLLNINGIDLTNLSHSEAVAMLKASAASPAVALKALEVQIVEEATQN

[22] = target: IL16_3, Q14005
[23] = target: T8, DFNB31_3, Q9P202
T8 sequence (Q9P202 811-907, limits assumed, looked up): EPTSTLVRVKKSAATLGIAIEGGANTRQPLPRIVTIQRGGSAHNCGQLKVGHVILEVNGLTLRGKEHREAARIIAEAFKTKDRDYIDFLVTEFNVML

[24] = target: SNX27, Q96L92
[25] = target: DLG1_3, Q12959
[26] = target: GRIP2_5, Q9C0E4
[27] = target: HTRA1, Q92743
[28] = target: T9, MPDZ_10, O75970
T9 sequence (O75970 1624-1722, limits assumed, looked up): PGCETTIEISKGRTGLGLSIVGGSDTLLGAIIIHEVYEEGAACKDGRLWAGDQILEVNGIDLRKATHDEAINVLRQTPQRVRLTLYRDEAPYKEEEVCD

[29] = target: Inadl_5, Q8NI35
[30] = plain residues with an end cap or a label only (N-terminal biotin on a linker: ttds)
[31] = plain residues with an end cap or a label only (N-terminal biotin on a linker: ahx)

Chain of PICK1, Q9NRD5 (Q9NRD5 17-115): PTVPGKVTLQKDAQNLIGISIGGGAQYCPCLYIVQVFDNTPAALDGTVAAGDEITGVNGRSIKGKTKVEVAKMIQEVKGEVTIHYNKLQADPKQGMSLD
Chain of Inadl_1, Q8NI35 (Q8NI35 113-229): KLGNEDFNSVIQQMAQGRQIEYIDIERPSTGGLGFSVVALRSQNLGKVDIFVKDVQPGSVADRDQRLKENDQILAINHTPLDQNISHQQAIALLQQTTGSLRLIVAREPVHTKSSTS
Chain of Inadl_9, Q8NI35 (Q8NI35 1530-1615): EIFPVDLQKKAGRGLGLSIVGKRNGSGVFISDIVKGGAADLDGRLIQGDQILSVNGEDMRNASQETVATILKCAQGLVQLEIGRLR
Chain of GRID2IP_2, A4D2P6 (A4D2P6 272-370): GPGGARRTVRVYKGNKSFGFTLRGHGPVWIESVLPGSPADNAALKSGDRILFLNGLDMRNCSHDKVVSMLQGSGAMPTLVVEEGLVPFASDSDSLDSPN
Chain of GRIP2_4, Q9C0E4 (Q9C0E4 446-548): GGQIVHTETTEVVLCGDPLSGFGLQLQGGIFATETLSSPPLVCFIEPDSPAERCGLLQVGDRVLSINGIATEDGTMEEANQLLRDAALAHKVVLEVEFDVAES
Chain of MAGI1_1, Q96QZ7 (Q96QZ7 1-106): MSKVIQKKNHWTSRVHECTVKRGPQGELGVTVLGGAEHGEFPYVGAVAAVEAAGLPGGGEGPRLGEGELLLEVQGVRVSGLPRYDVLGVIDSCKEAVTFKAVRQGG
Chain of HTRA1, Q92743 (Q92743 360-477): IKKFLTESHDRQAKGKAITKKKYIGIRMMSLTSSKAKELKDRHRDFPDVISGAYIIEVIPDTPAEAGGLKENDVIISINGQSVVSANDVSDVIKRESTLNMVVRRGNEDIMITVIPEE
Chain of TJP1_3, Q07157 (Q07157 416-512): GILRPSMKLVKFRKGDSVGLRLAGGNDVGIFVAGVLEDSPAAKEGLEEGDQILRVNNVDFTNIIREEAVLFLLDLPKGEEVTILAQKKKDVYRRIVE
Chain of IL16_3, Q14005 (Q14005 1107-1207): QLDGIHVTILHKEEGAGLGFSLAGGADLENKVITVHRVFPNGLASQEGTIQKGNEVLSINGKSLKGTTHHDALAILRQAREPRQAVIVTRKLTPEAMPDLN
Chain of DLG1_3, Q12959 (Q12959 457-571): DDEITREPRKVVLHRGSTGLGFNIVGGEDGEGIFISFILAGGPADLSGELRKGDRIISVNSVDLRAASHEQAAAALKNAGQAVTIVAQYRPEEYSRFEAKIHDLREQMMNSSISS
Chain of MAGI3_2, Q5TCQ9 (Q5TCQ9 398-503): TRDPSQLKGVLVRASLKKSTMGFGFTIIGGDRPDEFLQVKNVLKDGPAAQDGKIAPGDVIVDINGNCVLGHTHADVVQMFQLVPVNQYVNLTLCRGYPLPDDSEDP
Chain of MAST1, Q9Y2H9 (Q9Y2H9 962-1065): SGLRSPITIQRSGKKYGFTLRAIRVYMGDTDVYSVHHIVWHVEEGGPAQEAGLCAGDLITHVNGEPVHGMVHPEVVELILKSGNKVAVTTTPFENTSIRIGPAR
Chain of HTRA2, O43464 (O43464 355-458): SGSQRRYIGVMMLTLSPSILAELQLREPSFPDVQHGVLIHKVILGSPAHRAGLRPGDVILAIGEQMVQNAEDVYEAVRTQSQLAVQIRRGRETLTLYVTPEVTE
Chain of Inadl_5, Q8NI35 (Q8NI35 673-780): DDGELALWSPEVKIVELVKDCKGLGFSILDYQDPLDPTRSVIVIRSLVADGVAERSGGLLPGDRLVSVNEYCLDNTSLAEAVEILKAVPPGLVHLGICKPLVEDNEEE
Chain of GRIP2_5, Q9C0E4 (Q9C0E4 544-642): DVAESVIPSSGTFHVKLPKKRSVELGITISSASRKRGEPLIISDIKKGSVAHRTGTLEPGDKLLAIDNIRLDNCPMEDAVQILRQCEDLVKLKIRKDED
Chain of TJP1_2, Q07157 (Q07157 181-274): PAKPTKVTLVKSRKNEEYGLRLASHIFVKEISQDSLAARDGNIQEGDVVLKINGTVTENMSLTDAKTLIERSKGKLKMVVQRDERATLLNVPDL
Chain of Inadl_4, Q8NI35 (Q8NI35 547-651): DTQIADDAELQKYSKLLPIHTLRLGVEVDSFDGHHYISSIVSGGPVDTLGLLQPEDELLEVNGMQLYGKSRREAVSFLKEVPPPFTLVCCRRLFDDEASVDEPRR

In the case of IQREDQETAV [DGKZ, Q13574], the pKd [1, 30] is reported as 3.98, the pKd [2, 30] is reported as “below the threshold” and the pKd [3, 30] is reported as “below the threshold”. The pKd [4, 30] was “below the threshold”, the pKd [5, 30] was “below the threshold” and the pKd [6, 30] was “below the threshold”. The pKd [7, 30] was 3.86, the pKd [8, 30] was “below the threshold” and the pKd [9, 30] was 4.85. For the same binder, the pKd [10, 30] was “below the threshold”, the pKd [11, 30] was “below the threshold” and the pKd [12, 30] was “below the threshold”. The pKd [13, 30] was “below the threshold”, the pKd [14, 30] was “below the threshold” and the pKd [15, 30] was “below the threshold”. The pKd [16, 30] was 4.57, the pKd [17, 30] was “below the threshold” and the pKd [18, 30] was “below the threshold”. For the same binder, the pKd [19, 30] was 4.47, the pKd [20, 30] was “below the threshold” and the pKd [21, 30] was “below the threshold”. For the same binder, the pKd [22, 30] was “below the threshold”, the pKd [23, 30] was “below the threshold” and the pKd [24, 30] was 6. For the same binder, the pKd [25, 30] was 4.12, the pKd [26, 30] was “below the threshold” and the pKd [27, 30] was 3.96. The pKd [28, 30] was “below the threshold” and the pKd [29, 30] was “below the threshold”.

For KTSAHHATFV [RGS12, O14924], the pKd [1, 31] was 4.27, the pKd [2, 31] was 4.12 and the pKd [3, 31] was “below the threshold”. The pKd [4, 31] was “below the threshold”, the pKd [5, 31] was 4.62 and the pKd [6, 31] was 4.42. For the same binder, the pKd [7, 31] was 3.53, the pKd [8, 31] was “below the threshold” and the pKd [9, 31] was 4.72. The pKd [10, 31] was “below the threshold”, the pKd [11, 31] was “below the threshold” and the pKd [12, 31] was “below the threshold”. The pKd [13, 31] was “below the threshold”, the pKd [14, 31] was 3.93 and the pKd [15, 31] was “below the threshold”. For the same binder, the pKd [16, 31] was 3.65, the pKd [17, 31] was “below the threshold” and the pKd [18, 31] was “below the threshold”. For the same binder, the pKd [19, 31] was 3.6, the pKd [20, 31] was 4.42 and the pKd [21, 31] was “below the threshold”. For the same binder, the pKd [22, 31] was “below the threshold”, the pKd [23, 31] was “below the threshold” and the pKd [24, 31] was 4.05. The pKd [25, 31] was “below the threshold”, the pKd [26, 31] was “below the threshold” and the pKd [27, 31] was 4.43. It also gave a pKd [28, 31] of 3.98 and a pKd [29, 31] of 3.86.

SPLHSLETSL [ATP2B1, P20020] was tested, and the pKd [1, 30] was 4.17, the pKd [2, 30] was “below the threshold” and the pKd [3, 30] was 3.69. The pKd [4, 30] was “below the threshold”, the pKd [5, 30] was “below the threshold” and the pKd [6, 30] was “below the threshold”. For the same binder, the pKd [7, 30] was 4.13, the pKd [8, 30] was “below the threshold” and the pKd [9, 30] was 3.69. For the same binder, the pKd [10, 30] was “below the threshold”, the pKd [11, 30] was “below the threshold” and the pKd [12, 30] was “below the threshold”. For the same binder, the pKd [13, 30] was “below the threshold”, the pKd [14, 30] was “below the threshold” and the pKd [15, 30] was “below the threshold”. For the same binder, the pKd [16, 30] was 4.92, the pKd [17, 30] was “below the threshold” and the pKd [18, 30] was “below the threshold”. For the same binder, the pKd [19, 30] was 4.27, the pKd [20, 30] was “below the threshold” and the pKd [21, 30] was “below the threshold”. The pKd [22, 30] was “below the threshold”, the pKd [23, 30] was “below the threshold” and the pKd [24, 30] was 5.48. For the same binder, the pKd [25, 30] was 4.08, the pKd [26, 30] was “below the threshold” and the pKd [27, 30] was 3.75. For the same binder, the pKd [28, 30] was “below the threshold” and the pKd [29, 30] was “below the threshold”.
